From PMC2720833 (Journal of molecular biology, 2009)

Key:
Test in all cases: ITC
[1] = target: SOCS3 box/elonginBC ternary complex (murine | human | mouse, UniProt Q15370 1-118; P83940 17-112)
[2] = target: SOCS1 box/elonginBC ternary complex (murine | human | mouse, UniProt Q15370 1-118; P83940 17-112)
[3] = target: SOCS2 box/elonginBC ternary complex (murine | human | mouse, UniProt Q15370 1-118; P83940 17-112)
[4] = target: SOCS4 box/elonginBC ternary complex (murine | human | mouse, UniProt Q15370 1-118; P83940 17-112)
[5] = target: SOCS5 box/elonginBC ternary complex (murine | human | mouse, UniProt Q15370 1-118; P83940 17-112)
[6] = target: SOCS6 box/elonginBC ternary complex (murine | human | mouse, UniProt Q15370 1-118; P83940 17-112)
[7] = target: SOCS7 box/elonginBC ternary complex (murine | human | mouse, UniProt Q15370 1-118; P83940 17-112)
[8] = target: CIS box/elonginBC ternary complex (murine | human | mouse, UniProt Q15370 1-118; P83940 17-112)

stoichiometry N [1]: ~1
Kd [2]: 1000 nM
stoichiometry N [2]: ~1
Kd [3]: ~10 nM
stoichiometry N [3]: ~1
Kd [4]: ~10 nM
stoichiometry N [4]: ~1
Kd [5]: ~10 nM
stoichiometry N [5]: ~1
Kd [6]: ~10 nM
stoichiometry N [6]: ~1
Kd [7]: ~10 nM
stoichiometry N [7]: ~1
Kd [8]: ~10 nM
stoichiometry N [8]: ~1
B1: GST-Cullin5 (NTD), N-terminal domain of murine cullin5 (Met1-Leu385) with V341R and L345D (domain or fragment)
chain: MATSNLLKNKGSLQFEDKWDFMHPIVLKLLRQESVTKQQWFDLFSDVHAVCLWDDKGSSKIHQALKEDILEFIKQAQARVLSHQDDTALLKAYIVEWRKFFTQCDILPKPFCQLEVTLLGKQSSNKKSNMEDSIVRKLMLDTWNESIFSNIKNRLQDSAMKLVHAERLGEAFDSQLVIGVRESYVNLCSNPEDKLQIYRDNFEKAYLDSTERFYRTQAPSYLQQNGVQNYMKYADAKLKEEEKRALRYLETRRECNSVEALMECCVNALVTSFKETILAECQGMIKRNETEKLHLMFSLMDKVPNGIEPMLKDLEEHIISAGLADMVAAAETITTDSEKYREQLDTLFNRFSKLVKEAFQDDPRFLTARDKAYKAVVNDATIFKL
